{
  "source": "patent US20210171647A1",
  "about": "(WUXI BIOLOGICS SHANGHAI, published 2021)",
  "key": {"human 4-1BB (CD137) ECD": {"biological_target": "T1, human 4-1BB (CD137) ECD (human, UniProt Q07011 24-186)", "T1 construct": "extracellular domain", "T1 sequence (Q07011 24-186)": "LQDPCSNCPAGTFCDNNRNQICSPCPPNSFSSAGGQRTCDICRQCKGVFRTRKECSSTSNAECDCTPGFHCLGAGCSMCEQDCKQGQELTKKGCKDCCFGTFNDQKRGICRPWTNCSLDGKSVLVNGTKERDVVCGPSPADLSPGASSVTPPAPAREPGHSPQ", "experiment": "ELISA on coated ECD, one antibody concentration (not given)"}, "human CD271 ECD": {"biological_target": "T2, human CD271 ECD (human, UniProt P08138 29-250)", "T2 construct": "extracellular domain", "T2 sequence (looked up)": "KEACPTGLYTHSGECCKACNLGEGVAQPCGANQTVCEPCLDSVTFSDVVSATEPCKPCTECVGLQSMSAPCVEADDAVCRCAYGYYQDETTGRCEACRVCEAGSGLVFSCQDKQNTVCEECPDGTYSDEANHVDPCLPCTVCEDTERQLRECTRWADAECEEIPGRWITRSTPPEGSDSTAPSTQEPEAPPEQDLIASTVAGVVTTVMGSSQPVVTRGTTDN", "experiment": "ELISA on coated ECD, one antibody concentration (not given)"}, "human CD40 ECD": {"biological_target": "T3, human CD40 ECD (human, UniProt P25942 21-193)", "T3 construct": "extracellular domain", "T3 sequence (P25942 21-193)": "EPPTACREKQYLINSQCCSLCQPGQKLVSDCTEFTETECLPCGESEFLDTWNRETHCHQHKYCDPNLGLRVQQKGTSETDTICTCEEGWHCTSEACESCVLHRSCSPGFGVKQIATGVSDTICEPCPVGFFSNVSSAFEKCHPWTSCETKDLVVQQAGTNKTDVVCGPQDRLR", "experiment": "ELISA on coated ECD, one antibody concentration (not given)"}, "[1]": {"biological_target": "T4, human OX40, full-length, on cells (human, UniProt P43489 29-277)", "T4 construct": "whole, on cells; also called hPro1; cell surface human OX40", "T4 sequence (looked up)": "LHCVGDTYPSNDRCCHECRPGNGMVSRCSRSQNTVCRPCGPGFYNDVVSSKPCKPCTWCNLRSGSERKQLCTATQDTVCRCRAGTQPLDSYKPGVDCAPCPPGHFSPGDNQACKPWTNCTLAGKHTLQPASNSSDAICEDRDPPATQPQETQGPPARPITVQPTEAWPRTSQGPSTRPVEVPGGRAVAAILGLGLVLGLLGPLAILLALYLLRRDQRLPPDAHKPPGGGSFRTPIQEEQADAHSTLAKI", "experiment": "flow cytometry on activated human CD4+ T cells", "protocol": "Briefly, human OX40-expressing CHO-K1 cells or activated human CD4⁺ T cells were transferred into 96-well U-bottom plates (Corning) at a density of 1×10⁵ cells/well. Testing antibodies were serially diluted in wash buffer (1×PBS/1% BSA) and incubated with cells at 4° C. for 1 h. After washing with 1×PBS/1% BSA, the secondary antibody goat anti-human IgG Fc-PE (Jackson ImmunoResearch Lab) was applied and incubated with cells at 4° C. in the dark for 1 h. The cells were then washed and resuspended in 1×PBS/1% BSA or fixed with 4% paraformaldehyde, and then analyzed by flow cytometry (BD)."}, "human OX40-ECD.His K120A": {"biological_target": "T5, human OX40-ECD.His K120A (human, UniProt P43489 29-214)", "T5 construct": "extracellular domain; not shown: C-terminal His-tag", "T5 sequence (looked up)": "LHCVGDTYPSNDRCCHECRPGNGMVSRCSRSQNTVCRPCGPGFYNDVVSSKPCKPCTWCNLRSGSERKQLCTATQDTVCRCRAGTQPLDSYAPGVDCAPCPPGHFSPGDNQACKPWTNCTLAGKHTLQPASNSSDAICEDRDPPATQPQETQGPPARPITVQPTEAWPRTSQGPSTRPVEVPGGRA", "experiment": "ELISA, antibody coated, OX40-ECD.His mutant supernatant; relative to silent alanine substitutions;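 note: captured OX40 mutant protein detected with HRP-labelled anti-His antibody, absorbance read-out, scaled to the mean signal of control mutants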"}, "human OX40-ECD.His G70A": {"biological_target": "T6, human OX40-ECD.His G70A (human, UniProt P43489 29-214)", "T6 construct": "extracellular domain; not shown: C-terminal His-tag", "T6 sequence (looked up)": "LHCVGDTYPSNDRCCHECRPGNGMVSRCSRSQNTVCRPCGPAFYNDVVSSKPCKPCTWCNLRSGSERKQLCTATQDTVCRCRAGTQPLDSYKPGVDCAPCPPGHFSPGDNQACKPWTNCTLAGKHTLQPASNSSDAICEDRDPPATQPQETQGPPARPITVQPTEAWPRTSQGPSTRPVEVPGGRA", "experiment": "ELISA, antibody coated, OX40-ECD.His mutant supernatant; relative to silent alanine substitutions"}, "human OX40-ECD.His T100A": {"biological_target": "T7, human OX40-ECD.His T100A (human, UniProt P43489 29-214)", "T7 construct": "extracellular domain; not shown: C-terminal His-tag", "T7 sequence (looked up)": "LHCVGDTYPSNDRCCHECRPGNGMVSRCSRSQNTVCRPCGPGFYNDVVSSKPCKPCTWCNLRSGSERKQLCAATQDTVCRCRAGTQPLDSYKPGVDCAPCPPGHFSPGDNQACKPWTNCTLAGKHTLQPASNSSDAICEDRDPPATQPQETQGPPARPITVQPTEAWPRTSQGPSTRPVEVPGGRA", "experiment": "ELISA, antibody coated, OX40-ECD.His mutant supernatant; relative to silent alanine substitutions"}, "human OX40-ECD.His P143A": {"biological_target": "T8, human OX40-ECD.His P143A (human, UniProt P43489 29-214)", "T8 construct": "extracellular domain; not shown: C-terminal His-tag", "T8 sequence (looked up)": "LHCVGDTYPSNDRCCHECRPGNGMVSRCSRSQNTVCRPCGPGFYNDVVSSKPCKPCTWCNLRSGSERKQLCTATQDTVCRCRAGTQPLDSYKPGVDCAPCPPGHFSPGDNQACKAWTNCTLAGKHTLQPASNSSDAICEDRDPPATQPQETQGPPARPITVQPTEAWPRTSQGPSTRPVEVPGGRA", "experiment": "ELISA, antibody coated, OX40-ECD.His mutant supernatant; relative to silent alanine substitutions"}, "human OX40-ECD.His I165A": {"biological_target": "T9, human OX40-ECD.His I165A (human, UniProt P43489 29-214)", "T9 construct": "extracellular domain; not shown: C-terminal His-tag", "T9 sequence (looked up)": "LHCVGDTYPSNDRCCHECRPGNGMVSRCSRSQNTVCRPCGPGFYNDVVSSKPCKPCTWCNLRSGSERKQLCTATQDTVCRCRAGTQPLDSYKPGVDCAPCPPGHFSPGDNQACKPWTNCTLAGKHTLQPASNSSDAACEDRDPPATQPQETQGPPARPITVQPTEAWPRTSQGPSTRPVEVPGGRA", "experiment": "ELISA, antibody coated, OX40-ECD.His mutant supernatant; relative to silent alanine substitutions"}, "human OX40-ECD.His E167A": {"biological_target": "T10, human OX40-ECD.His E167A (human, UniProt P43489 29-214)", "T10 construct": "extracellular domain; not shown: C-terminal His-tag", "T10 sequence (looked up)": "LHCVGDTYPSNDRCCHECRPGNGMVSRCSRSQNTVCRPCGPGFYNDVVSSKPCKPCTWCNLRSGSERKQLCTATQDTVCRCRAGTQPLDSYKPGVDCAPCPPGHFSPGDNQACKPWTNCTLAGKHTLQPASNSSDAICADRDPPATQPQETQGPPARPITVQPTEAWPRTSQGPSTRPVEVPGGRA", "experiment": "ELISA, antibody coated, OX40-ECD.His mutant supernatant; relative to silent alanine substitutions"}, "human OX40-ECD.His S77A": {"biological_target": "T11, human OX40-ECD.His S77A (human, UniProt P43489 29-214)", "T11 construct": "extracellular domain; not shown: C-terminal His-tag", "T11 sequence (looked up)": "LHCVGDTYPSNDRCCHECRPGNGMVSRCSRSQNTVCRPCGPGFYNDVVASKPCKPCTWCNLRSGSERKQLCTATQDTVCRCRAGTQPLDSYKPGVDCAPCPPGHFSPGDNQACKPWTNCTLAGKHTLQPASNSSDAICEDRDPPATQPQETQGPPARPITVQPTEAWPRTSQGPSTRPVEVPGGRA", "experiment": "ELISA, antibody coated, OX40-ECD.His mutant supernatant; relative to silent alanine substitutions"}},
  "data": [
    {"binder": "1.134.9-u1-IgG1L (antibody, V domains shown, fully human IgG1, lambda) VH: QVQLQESGPGLVKPSGTLSLTCAVSGGSISSYNWWSWVRQPPGKGLEWIGEIYHGGNTNYNPSLKSRVTMSVDNSKNQFSLKLSSVTAADTAVYYCARAPGDWGGSPYFDFWGQGTLVTVSS VL: SSELTQDPAVSVALGQTVRITCQGDNLRTYYASWYQQKPGQAPILLIYGRNKRPSGIPDRFSGSSSGNTASLTITGAQAEDEAAYYCNSRDSSGNPVVFGGGTKLTVL", "values": [
      {"measurement": "binding result", "setting": "human 4-1BB (CD137) ECD", "value": "no binding"},
      {"measurement": "binding result", "setting": "human CD271 ECD", "value": "no binding"},
      {"measurement": "binding result", "setting": "human CD40 ECD", "value": "no binding"},
      {"measurement": "EC50 (read off the curve)", "setting": "[1]", "value": "1 to 2", "unit": "nM"},
      {"measurement": "Fold Change", "setting": "human OX40-ECD.His K120A", "value": 0.896},
      {"measurement": "Fold Change", "setting": "human OX40-ECD.His G70A", "value": 0.511},
      {"measurement": "Fold Change", "setting": "human OX40-ECD.His T100A", "value": 0.557},
      {"measurement": "Fold Change", "setting": "human OX40-ECD.His P143A", "value": 0.92},
      {"measurement": "Fold Change", "setting": "human OX40-ECD.His I165A", "value": 0.871},
      {"measurement": "Fold Change", "setting": "human OX40-ECD.His E167A", "value": 0.998},
      {"measurement": "Fold Change", "setting": "human OX40-ECD.His S77A", "value": 0.879}
    ]}
  ]
}
